Values quoted from earlier work, collected in publication PMC4716630.

Biological target: hMSH2 (Homo sapiens) (UniProt P43246)
Sequence (P43246 2-934): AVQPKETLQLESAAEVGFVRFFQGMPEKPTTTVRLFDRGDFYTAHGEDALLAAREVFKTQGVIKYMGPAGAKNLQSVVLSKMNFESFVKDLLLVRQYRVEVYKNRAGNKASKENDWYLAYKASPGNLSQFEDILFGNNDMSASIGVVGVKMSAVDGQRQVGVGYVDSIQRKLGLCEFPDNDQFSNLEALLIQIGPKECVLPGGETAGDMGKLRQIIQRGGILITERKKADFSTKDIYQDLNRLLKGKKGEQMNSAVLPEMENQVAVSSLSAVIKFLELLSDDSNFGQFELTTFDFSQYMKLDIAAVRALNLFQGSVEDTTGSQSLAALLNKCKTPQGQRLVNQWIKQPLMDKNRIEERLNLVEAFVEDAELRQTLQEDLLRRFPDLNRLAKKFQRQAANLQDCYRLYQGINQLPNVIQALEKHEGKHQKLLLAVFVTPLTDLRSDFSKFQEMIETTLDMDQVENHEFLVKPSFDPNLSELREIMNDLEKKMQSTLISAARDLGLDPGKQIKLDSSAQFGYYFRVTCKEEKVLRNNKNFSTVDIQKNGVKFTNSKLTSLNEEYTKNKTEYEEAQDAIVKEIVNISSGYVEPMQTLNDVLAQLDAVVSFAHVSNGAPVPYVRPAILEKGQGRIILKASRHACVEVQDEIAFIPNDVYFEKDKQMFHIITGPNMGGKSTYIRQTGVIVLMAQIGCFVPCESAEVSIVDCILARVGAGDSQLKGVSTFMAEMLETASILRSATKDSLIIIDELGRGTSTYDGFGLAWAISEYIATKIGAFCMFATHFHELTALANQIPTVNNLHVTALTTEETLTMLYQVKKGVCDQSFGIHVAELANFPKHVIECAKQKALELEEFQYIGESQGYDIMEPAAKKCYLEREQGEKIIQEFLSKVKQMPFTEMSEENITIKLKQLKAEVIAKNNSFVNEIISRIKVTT

NKG2D, sequence (P26718 whole entry): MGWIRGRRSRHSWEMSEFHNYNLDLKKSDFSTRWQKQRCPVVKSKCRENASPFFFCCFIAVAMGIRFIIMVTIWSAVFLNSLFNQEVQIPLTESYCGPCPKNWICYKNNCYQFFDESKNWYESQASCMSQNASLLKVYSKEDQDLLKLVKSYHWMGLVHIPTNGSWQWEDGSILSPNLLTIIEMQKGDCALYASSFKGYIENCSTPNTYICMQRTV

Kd: 132 nM
Substance: NKG2D (from UniProt P26718)
